According to US6989362:

Test system: phospho-Thr75 DARPP-32

purified catalytic subunit of cAMP-dependent protein kinase (PKA)
phosphorylation of Thr34 DARPP-32 by PKA in vitro: The ability of PKA to phosphorylate Thr34 DARPP-32 in vitro was virtually abolished by prior phosphorylation at Thr75
